Target: T1, TGF-β2DM:TβRII binary complex (human, UniProt P37173 23-166)
T1 chain 1: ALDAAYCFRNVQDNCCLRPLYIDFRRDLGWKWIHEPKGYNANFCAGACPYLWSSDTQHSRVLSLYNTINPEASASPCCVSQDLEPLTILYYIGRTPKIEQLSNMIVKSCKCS
T1 chain 2: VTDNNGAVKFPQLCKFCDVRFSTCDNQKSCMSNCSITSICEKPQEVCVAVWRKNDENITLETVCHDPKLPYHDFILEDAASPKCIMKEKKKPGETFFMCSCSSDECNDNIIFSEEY
Assay: SEC-MALS

B1: full-length rat betaglycan ectodomain (domain or fragment, UniProt P26342 24-789, looked up)
chain: GPEPSTRCELSPINASHPVQALMESFTVLSGCASRGTTGLPREVHVLNLRSTDQGPGQRQREVTLHLNPIASVHTHHKPIVFLLNSPQPLVWHLKTERLAAGVPRLFLVSEGSVVQFPSGNFSLTAETEERNFPQENEHLLRWAQKEYGAVTSFTELKIARNIYIKVGEDQVFPPTCNIGKNFLSLNYLAEYLQPKAAEGCVLPSQPHEKEVHIIELITPSSNPYSAFQVDIIVDIRPAQEDPEVVKNLVLILKCKKSVNWVIKSFDVKGNLKVIAPNSIGFGKESERSMTMTKLVRDDIPSTQENLMKWALDNGYRPVTSYTMAPVANRFHLRLENNEEMRDEEVHTIPPELRILLDPDHPPALDNPLFPGEGSPNGGLPFPFPDIPRRGWKEGEDRIPRPKQPIVPSVQLLPDHREPEEVQGGVDIALSVKCDHEKMVVAVDKDSFQTNGYSGMELTLLDPSCKAKMNGTHFVLESPLNGCGTRHRRSTPDGVVYYNSIVVQAPSPGDSSGWPDGYEDLESGDNGFPGDGDEGETAPLSRAGVVVFNCSLRQLRNPSGFQGQLDGNATFNMELYNTDLFLVPSPGVFSVAENEHVYVEVSVTKADQDLGFAIQTCFLSPYSNPDRMSDYTIIENICPKDDSVKFYSSKRVHFPIPHAEVDKKRFSFLFKSVFNTSLLFLHCELTLCSRKKGSLKLPRCVTPDDACTSLDATMIWTMMQNKKTFTKPLAVVLQVDYKENVPSTKDSSPIPPPPPQIFHGLDTLTV
stoichiometry N: 1 BG_(O-ZP) per TGF-β2DM dimer

From PMC6726503 (Structure (London, England : 1993), 2019)
